Data from IntAct's records for PubMed 19829382.

B1: Scaffold protein ILK (Mus musculus), O55222 (parent)
chain: MDDIFTQCREGNAVAVRLWLDNTENDLNQGDDHGFSPLHWACREGRSAVVEMLIMRGARINVMNRGDDTPLHLAASHGHRDIVQKLLQYKADINAVNEHGNVPLHYACFWGQDQVAEDLVANGALVSICNKYGEMPVDKAKAPLRELLRERAEKMGQNLNRIPYKDTFWKGTTRTRPRNGTLNKHSGIDFKQLNFLAKLNENHSGELWKGRWQGNDIVVKVLKVRDWSTRKSRDFNEECPRLRIFSHPNVLPVLGACQAPPAPHPTLITHWMPYGSLYNVLHEGTNFVVDQSQAVKFALDMARGMAFLHTLEPLIPRHALNSRSVMIDEDMTARISMADVKFSFQCPGRMYAPAWVAPEALQKKPEDTNRRSADMWSFAVLLWELVTREVPFADLSNMEIGMKVALEGLRPTIPPGISPHVCKLMKICMNEDPAKRPKFDMIVPILEKMQDK
partner: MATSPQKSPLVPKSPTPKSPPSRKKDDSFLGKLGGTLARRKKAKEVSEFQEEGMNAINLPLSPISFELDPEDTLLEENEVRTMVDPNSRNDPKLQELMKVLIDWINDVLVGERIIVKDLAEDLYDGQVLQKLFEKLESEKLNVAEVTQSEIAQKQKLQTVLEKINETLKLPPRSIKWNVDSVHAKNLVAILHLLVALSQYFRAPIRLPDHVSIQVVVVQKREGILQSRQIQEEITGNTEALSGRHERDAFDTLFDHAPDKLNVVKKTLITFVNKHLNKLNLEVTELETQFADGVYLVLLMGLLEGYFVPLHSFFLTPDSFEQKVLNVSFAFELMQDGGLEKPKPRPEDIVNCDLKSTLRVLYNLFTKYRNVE

Variants of: B1
Conditions: with parva_mouse Parva
With MDDIFTQCREGNAVAVRLWLDNTENDLNQGDDHGFSPLHWACREGRSAVVEMLIMRGARINVMNRGDDTPLHLAASHGHRDIVQKLLQYKADINAVNEHGNVPLHYACFWGQDQVAEDLVANGALVSICNKYGEMPVDKAKAPLRELLRERAEKMGQNLNRIPYKDTFWKGTTRTRPRNGTLNKHSGIDFKQLNFLAKLNENHSGELWKGRWQGNDIVVAVLKVRDWSTRKSRDFNEECPRLRIFSHPNVLPVLGACQAPPAPHPTLITHWMPYGSLYNVLHEGTNFVVDQSQAVKFALDMARGMAFLHTLEPLIPRHALNSRSVMIDEDMTARISMADVKFSFQCPGRMYAPAWVAPEALQKKPEDTNRRSADMWSFAVLLWELVTREVPFADLSNMEIGMKVALEGLRPTIPPGISPHVCKLMKICMNEDPAKRPKFDMIVPILEKMQDK [K220A] the “effect of a mutation on the interaction” value was “decreasing interaction strength”.
For MDDIFTQCREGNAVAVRLWLDNTENDLNQGDDHGFSPLHWACREGRSAVVEMLIMRGARINVMNRGDDTPLHLAASHGHRDIVQKLLQYKADINAVNEHGNVPLHYACFWGQDQVAEDLVANGALVSICNKYGEMPVDKAKAPLRELLRERAEKMGQNLNRIPYKDTFWKGTTRTRPRNGTLNKHSGIDFKQLNFLAKLNENHSGELWKGRWQGNDIVVMVLKVRDWSTRKSRDFNEECPRLRIFSHPNVLPVLGACQAPPAPHPTLITHWMPYGSLYNVLHEGTNFVVDQSQAVKFALDMARGMAFLHTLEPLIPRHALNSRSVMIDEDMTARISMADVKFSFQCPGRMYAPAWVAPEALQKKPEDTNRRSADMWSFAVLLWELVTREVPFADLSNMEIGMKVALEGLRPTIPPGISPHVCKLMKICMNEDPAKRPKFDMIVPILEKMQDK [K220M], the “effect of a mutation on the interaction” value was “decreasing interaction strength”.
